The data set in a line: soluble on expression in E. coli; label from the status in PepcDB or PDB records.
On to “EVKLEESGGGLVQPGGSMKLSCATSGFTFSDAWMDWVRQSPEKGLEWVAEIRNKANNHATYYAESVKGRFTISRDDSKRRVYLQMNTLRAEDTGIYYCTGIYYHYPWFAYWGQGTLVTVSAEP”, for which the “soluble on expression in E. coli” value was “soluble”. “MGSDKIHHHHHHMVRLSEAEVQNPKLGEYQCLADLNLFDSPECTRLATQSASGRHLWVTSNHQNLAVEVYLCEDDYPGWLSLSDFDSLQPATVPYQAATFSESEIKKLLAEVIAFTQKAMQQSNYYLWGGTVGPNYDCSGLMQAAFASVGIWLPRDAYQQEGFTQPITIAELVAGDLVFFGTSQKATHVGLYLADGYYIHSSGKDQGRDGIGIDILSEQGDAVSLSYYQQLRGAGRVFKSYEPQRR”: the “soluble on expression in E. coli” value is given as “soluble”.

For the sequence “MSLRITTLEELLEALDELFDDGSDLTRRGAQDPWERVFSQPGHPLASDLPDACLVDWTRQGLLPSGDGLTALDLGCGLGRNARWLARQGYAVTGLDLSPYAVGQARERTPGPDIRYLEGDVLRDPIPGGPFDVVYDSGCFHHLPPHRRLSYLHTLGQVLRPGGWFGLCTFAWGRMGSAKSDLELLRQGQLEGGVGYTLDDLREMFGGLDFVTGSLLSELEPASEPVFQMDFLQAALFRREGHHHHHH”, the “soluble on expression in E. coli” value is “soluble”. For “MTDSPSPIDSSFDASDVATPCTVIAAKISLRNRNGLEEDQENLDSFDAFTETHETQESKNIAHGEHEEDVSNIYVDDFSKEFGDTVSSVMEPLPKPLTFARTITKVYCHLDDQEHPYMVEVHVPPDCITLRDVKRKLMRTNFKYYCIALDPDTGLEVKAEVRDDSRRLYPLKNGRFELYLLTVEGSVHSDTSSGRHRRKQDGSSKGSSGSREYLRAAHHYDNPTPFSDDESQASSLPTYVKKAHAYNRKHAPQAYERHLPHMKHNNRHNHHRQNHYEESTFDVTTESDDHYRDGVTYYDEDEDDSRSINTDLTSVSQVHLKQKWRQQQKEMRNKWKRMPSISTASSSFSSITESSMGLEVITVRLNLETIPLGMTPSGHTNARGDAGLYVGDIQDRGAVALDGRIDIGDMIVGINEISLGNYSNKEAVQLLREAVQRQYLTLTIAKTGDPKQNAFPRNPRAEPIRPIDPNEWVKHATNAMKAMPSISEGSGLDIKDRYWFKIPIPMSFLGTDLVEWLVKHVQGLETKKKAREFAEEMLKLGYIRPGVGKQSFTKECYYVMGDECADYTQLRGPDGGYKYPQSHASSASGHSSNNLIFPPSMYPPQPPTAGAVQSSKFEGREMIREVKRVGVVEEAREGTSNYHGSLHHSAVGLV” the value was “soluble”.

Turning to “MPSMAEIYVKELRERDPATVDTLFLDNAEDGQIGGLTDQLINLEMLSMVKCGLTTLAGFPTLPALTYLDISDNQLGDNASFDVLVKNAPDLKKITLASNKLSLDNLRCLKVLPNLFELDLSNNPSLGLLEDYREKMFEMIPSLKILDGCDVDGEEVEEEFAGEGGEDSEEGSGDEDGPGLSYLEKSQFSDDETDDYAPEGGDAEPRGTKRGASDNGEEPDNKKAAGDDE”, the “soluble on expression in E. coli” value is listed as “soluble”. For “MSRFQTLTPASLSREAFIEAFADIYEHSPWVAEKAYDLGIDDSLNDIEGLHQRMADILLSASREAQLALINAHPDLAGKAAIRGELTASSTSEQAGAGIHECSAEEFARFTELNDAYKARFGFPFIKAVKGSNRHQILAAFEERIQHSADEEFATALAEINKIALFRLQQLLEHHHHHH” the value was “soluble”. The result for “MAKKSTGFDHDPVRVLVAWNPSSHGAEAIECAAWLARTTNVTVQCVTAFLRPWPSSSGNKLGSKYKKWFKKEAFACEDAVKAAFSRAEIPTAMWADTVSVFCDGTNEAALLSEAAHKFGADIVLLGSEAAAPKGRFLAGSTADALLHSSPQPLGLTPRKPKLSKRGVTRVNFAYTGDATDNTSLIRTARLAAAWDVPLRVLALSPEGFGVPPISDTLELPEDLALEWRENTFAVLDRSRDTVHKAHPDVIVETEIGSGNGWSGAIESLKWKKGDLLCFGSTPLGAFERVFIGSQATEILPYVSVPVLMIPATTKVDKKSKK” reads “soluble”; that for “GPGSMSSTQTTSVFFTDVPLFVEERSLRKHFESVGHITDFRLLGPPVGKDFRYGFAEYLDSTSAEEAIARLNGTSFGGRPMKVMSAAATRGRKRQRQQNASHQQQPAPRGGMTFPRGYTDPVLGRDDTSIFECLQGMQQSDAYEAVEQLRVLVLERKNEARKLLENNPALRLAVVMILQHAGRLPFGPLPPEAIQHGGIRVDAPVPAAPAEGEGEKVEPPREQNDEIIEILSKLSEEEVERIVSMTDEDLNRIPDVSQRQQIGVLRERLLELAADLE”, “soluble”. For “QVKDFVIEPPIKNNLHIYKTFGVFGGKEYSANSMYLVTKKGVVLFDVPWEKVQYQSLMDTIKKRHNLPVVAVFATHSHDDRAGDLSFFNNKGIKTYATAKTNEFLKKDGKATSTEIIKTGKPYRIGGEEFVVDFLGEGHTADNVVVWFPKYNVLDGGCLVKSNSATDLGYIKEANVEQWPKTINKLKAKYSKATLIIPGHDEWKGGGHVEHTLELLNKK” the value was “soluble”; for “MADVDELEDPMEEMTSYTFARFLRSPETEAFVRNLDRPPQMPAMRFVYLYCLCKQIQEFSGETGFCDFVSSLVQENDSKDGPSLKSIYWGLQEATDEQRTVLCSYVESMTRGQSENLMWDILRNGIISSSKLLSTIKNGPTKVFEPAPISTNHYFGGPVAFGLRCEDTVKDIVCKLICGDASANRQFGFMISPTDGIFGVSLDLCVNVESQGDFILFTDRSCIYEIKCRFKYLFSKSEFDPIYPSYTALYKRPCKRSFIRFINSIARPTVEYVPDGRLPSEGDYLLTQDEAWNLKDVRKRKLGPGHDLVADSLAANRGVESMLYVMTDPSENAGRIGIKDRVPVNIFINPRHNYFYQVLLQYKIVGDYVRHSGGGKPGRDCSPRVNIVTAFFRKRSPLDPATCTLGSDLLLDASVEIPVAVLVTPVVLPDSVIRKTLSTAAGSWKAYADNTFDTAPWVPSGLFADDESTP”, “soluble”. On to “MSLTNVAEDQLTAQAVAPPTEASAALEPALETPESPVETLKTSISASRRVRARLARRMTAQRSTTNPVLEPLVAVHREIYPKADLSILQRAYEVADQRHASQLRQSGDPYITHPLAVANILAELGMDTTTLVAALLHDTVEDTGYTLEALTEEFGEEVGHLVDGVTKLDRVVLGSAAEGETIRKMITAMARDPRVLVIKVADRLHNMRTMRFLPPEKQARKARETLEVIAPLAHRLGMASVKWELEDLSFAILHPKKYEEIVRLVAGRAPSRDTYLAKVRAEIVNTLTASKIKATVEGRPKHYWSIYQKMIVKGRDFDDIHDLVGVRILCDEIRDCYAAVGVVHSLWQPMAGRFKDYIAQPRYGVYQSLHTTVVGPEGKPLEVQIRTRDMHRTAEYGIAAHWRYKEAKGRNGVLHPHAAAEIDDMAWMRQLLDWQREAADPGEFLESLRYDLAVQEIFVFTPKGDVITLPTGSTPVDFAYAVHTEVGHRCIGARVNGRLVALERKLENGEVVEVFTSKAPNAGPSRDWQQFVVSPRAKTKIRQWFAKERREEALETGKDAMAREVRRGGLPLQRLVNGESMAAVARELHYADVSALYTAIGEGHVSAKHVVQRLLAELGGIDQAEEELAERSTPATMPRRPRSTDDVGVSVPGAPGVLTKLAKCCTPVPGDVIMGFVTRGGGVSVHRTDCTNAASLQQQAERIIEVLWAPSPSSVFLVAIQVEALDRHRLLSDVTRALADEKVNILSASVTTSGDRVAISRFTFEMGDPKHLGHLLNAVRNVEGVYDVYRVTSEGHHHHHH”, for which the “soluble on expression in E. coli” value is listed as “not soluble”.

As for “MESKHKLSINQWALEDRPREKMMEKGAAALSDAELLAILIGSGNTEESAVELMRRLLLSCDNNLNSLAKWEVCDYSRFKGMGPAKSITVMAALELGKRRKLQNIQERPRISCSRDIYDIFQPVMCDLEQEEFWVLLLNQATRLIDKVRISTGGIDGTYTDVRTILREALLQRATQIAVVHNHPSGNIQPSQPDRTLTEHIRRAADTMNIRLIDHVIVCEDKFYSFADEGLL”, the “soluble on expression in E. coli” value is recorded as “not soluble”. The result for “MGSDKIHHHHHHMFDPETLRTFISVAETGSFSKAAERLCKTTATISYRIKLLEENTGVGLFFRTTRSVSLTAAGSHLLSQAKDWLAWLDSMPDELRQVNDGVERQVNIVVNNLLYSPQAVASLLSWLNARYPFTQFHFSRQIYMGVWDSLLYEGFSLAIGVTGTEPLANTFMLDPLGSVQWRFVMSADHPLAHVSGPLTEAQLRRFPAINIEDSARTLTKRVAWRLPGQKEIIVPDMETKIAAHLAGVGIGFVPQPLCQTLIDKNELVSCTIPTMRPPSPLSLAWHKFGGGKAVEDIVKLFTQRQPEIAGFLSIFNTVRC” reads “not soluble”; that for “MGSDKIHHHHHHMAKAKTQYVCQNCGYISATYLGRCPNCGGWNTLVEETVSSSKSVPRQTAAGSKVKPTRMNDVTITKETRVKTGLDELNRVLGGGVVPGSLVLIGGDPGIGKSTLLLQVSGQLANTGGTVLYVSGEESASQIKMRAGRLGVANSGMYLYPETDMPSIEDVINQMQPDYVVIDSVQTMNVPEMNSAVGSVTQIREVTAELMRIAKSKGVTIFIVGHVTKEGAIAGPKILEHMVDTVLYFEGDMHHTYRILRSVKNRFGSTNEIGIFEMHQDGLQEVANPSEIFLEERLAGATGSAVVVSMEGTRPILVEIQALISPTMYGNAKRTSSGLDHNRVSLIMAVLEKRANLMLQNQDAYLKATGGVKLDEPAIDLAMAVAIASSYRDKEISPTDCFVGEIGLTGEVRRVNRIEERVKEAAKLGFKRIFVPRNNLQGWHAPKDIQVIGVTSIAEALHKVFN”, “not soluble”.

On to “MSSSPAVKGLTDEEQKTLEPVIKTYHQFEPDPTTCTSLITQRIHAPASVVWPLIRRFDNPERYKHFVKRCRLISGDGDVGSVREVTVISGLPASTSTERLEFVDDDHRVLSFRVVGGEHRLKNYKSVTSVNEFLNQDSGKVYTVVLESYTVDIPEGNTEEDTKMFVDTVVKLNLQKLGVAATSAPMHDDE”, for which the “soluble on expression in E. coli” value is listed as “soluble”.

“MGSDKIHHHHHHMNLTGCGEKFYQHCKVILSEFEWATYEISYNQQYPEGELKLNTPMSFSNIFLQHIISDFIEKYPSIKIDLFMTDQLLDVNQHKFDLTIRLDGSAPSLANSKILNTYQRYLYATPEYFNQHGLPTSLEELKEHKFLIYYQDSRHKKLIFQKDQKEVSFNCFPVMTCNNGELLLDMCLKDHGIVFLPEFIAEPYYKEGKLQKCLEDYTSQPLHLYVTWPNRKILSKKVKLFIDFLTHQIIPIK”: the “soluble on expression in E. coli” value is “not soluble”.

In the case of “MAHHHHHHMSGITVQLVFAFVGTRVPYFMPESATAASSPARSPFGNASSVSFNAAAQPTLRADSARTSPRLTPCIPTNLFTAHGLLSHLAKALEPSLHAAANPEAATAESASLSPTAPLPFHKPPVFELFDYASLDPLEGSAALRDEQVLLVLCDIATTAQLVEALQLEWLEVYSGVHHPHHRSCSASTPEPAHTTDMAVCTTEEKLRNVAHAQQALCKPVGLHLSLLRKELLSREATLAAQKEQLAQMRSCTTEGTAPAAPATASGSDGLSTPMLSGRAASFPLLVELEPSLSSEPAPSATDATHLQKLEAPLALCEARVRAVESLMQRAAKHHTKLLGLAASERATEEAFQRGNVSRACAEYLEHTEQDRSAAEAIIADYQVEMTRQVKVVRQLIAYITQVRKLASKAKYEMGVVELILSRLSLTSLRPRLMKEAEALLRRRVILRRAARRQMLLLQETEFVKLQQDLESFSQRMEVQKVLPEKVRWYLRAPLPSLMPEEDPVATLLDHALIDREEDEAQELVEKTRVYTADSSDPEKNALQITEALLPVERLARRLEEARASAAQYKSRVEELEERLKLYETAEALSPPPLQDSAVKSPSTERPAEGGGSFEEG”, the “soluble on expression in E. coli” value was “soluble”. For “MHHHHHHSSGRENLYFQGKLPEPQFYAEPHTYEEPGRAGRSFTREIEASRIHIEKIIGSGDSGEVCYGRLRVPGQRDVPVAIKALKAGYTERQRRDFLSEASIMGQFDHPNIIRLEGVVTRGRLAMIVTEYMENGSLDTFLRTHDGQFTIMQLVGMLRGVGAGMRYLSDLGYVHRDLAARNVLVDSNLVCKVSDFGLSRVLEDDPDAAYTTTGGKIPIRWTAPEAIAFRTFSSASDVWSFGVVMWEVLAYGERPYWNMTNRDVISSVEEGYRLPAPMGCPHALHQLMLDCWHKDRAQRPRFSQIVSVLDALIRSPESLRATATVS” the value was “soluble”.

The record behind these values is the DeepSol protein solubility set.
